Data taken from patent publication US20100092974A1, “METHODS FOR SCREENING FOR MODULATORS OF CCRL2” (The Board of Trustees of the Leland Stanford Junior …, priority 2008, published 2010).

What was measured:
[1] = tested on: mouse peritoneal mast cells; assay: intracellular calcium mobilization, freshly isolated peritoneal mast cells; type: cell-based; details: 1000 nM chemerin, 100 nM ATP
Protocol: (§1) Chemoattractant-stimulated Ca^2+-mobilization was performed following Alliance for Cell Signaling protocol ID PP00000210. Cells (3×10^6/mL) were loaded with 4 μM Fluo4-AM and 0.16% Pluronic acid F-127 (Molecular Probes) in modified Iscove's medium (Iscove's medium with 1% heat inactivated bovine calf serum and 2 mM L-glutamine, Invitrogen) for 30 minutes at 37° C. The samples were mixed every 10 minutes during loading, washed once, resuspended at up to 2×10^6/mL in the same buffer, and allowed to rest in the dark for 30 minutes at room temperature. Chemoattractant-stimulated change in Ca^2+-sensitive fluorescence of Fluo-4 was measured over real-time with a FACsScan flow cytometer and CellQuest software (BD Biosciences) at room temperature under constant stirring (500 rpm). Fluorescent data were acquired continuously up to 1024 seconds at 1-second intervals. The samples were analyzed for 45 seconds to establish basal state, removed from the nozzle to add the stimuli, and then returned to the nozzle. Mean channel fluorescence over time was analyzed with FlowJo (TreeStar, Ashland, Oreg., USA) software. […] 500 μl of these chemerin-loaded cells were added to mCMKLR1/L1.2 cells loaded with Fluo4-AM, and calcium mobilization was evaluated.

[2] = biological target: T1, mCCRL2 (Mus musculus, UniProt O35457); assay: in vitro transwell chemotaxis, mCCRL2/L1.2 transfectants; type: cell-based; details: range of doses; CXCL12 and CCL19 act via endogenous CXCR4 and CCR7
T1 construct: The coding regions of mCCRL2, huCCRL2, mCRTH2, and huCCR10 were amplified from genomic DNA; expressed in transfected cells
T1 sequence (O35457 1-360): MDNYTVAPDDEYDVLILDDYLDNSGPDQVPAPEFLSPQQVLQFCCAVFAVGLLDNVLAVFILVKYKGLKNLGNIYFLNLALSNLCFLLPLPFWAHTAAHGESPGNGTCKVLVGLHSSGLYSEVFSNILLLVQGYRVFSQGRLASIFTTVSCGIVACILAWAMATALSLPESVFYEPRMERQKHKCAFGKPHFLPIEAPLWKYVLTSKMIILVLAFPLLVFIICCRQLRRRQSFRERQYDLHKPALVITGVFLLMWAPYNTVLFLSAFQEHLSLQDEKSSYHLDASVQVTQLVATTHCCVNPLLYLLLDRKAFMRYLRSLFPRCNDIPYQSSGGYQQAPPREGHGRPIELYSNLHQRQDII
Protocol: (§2) For migration experiments using cell lines, 2.5×10^5 cells/100 μl chemotaxis media (RPMI+10% fetal calf serum) were added to the top wells of 5-um pore transwell inserts (Costar, Corning, N.Y., USA), and test samples in 600 μl media were added to the bottom wells. After incubating the transwell plates for 1.5 hours at 37° C., the bottom wells were harvested and flow cytometry was used to assess migration. For primary cell chemotaxis, 1×10^6 cells/100 μl were added to the top well, and, following a 2 hour incubation at 37° C., polystyrene beads (15.0 μm diameter, Polysciences, Warrington, Pa., USA) were added to each well to facilitate normalization of the cell count. The cells were then stained for c-kit, F4/80, and/or CD11b expression and analyzed by flow cytometry. A ratio was generated and percent input migration was calculated.

[3] = biological target: T2, huCCRL2 (Homo sapiens, UniProt O00421); assay: in vitro transwell chemotaxis, huCCRL2-HA/L1.2 transfectants; type: cell-based; details: range of doses; CXCL12 and CCL19 act via endogenous CXCR4 and CCR7
T2 construct: The coding regions of mCCRL2, huCCRL2, mCRTH2, and huCCR10 were amplified from genomic DNA; expressed in transfected cells
T2 sequence (O00421 1-344): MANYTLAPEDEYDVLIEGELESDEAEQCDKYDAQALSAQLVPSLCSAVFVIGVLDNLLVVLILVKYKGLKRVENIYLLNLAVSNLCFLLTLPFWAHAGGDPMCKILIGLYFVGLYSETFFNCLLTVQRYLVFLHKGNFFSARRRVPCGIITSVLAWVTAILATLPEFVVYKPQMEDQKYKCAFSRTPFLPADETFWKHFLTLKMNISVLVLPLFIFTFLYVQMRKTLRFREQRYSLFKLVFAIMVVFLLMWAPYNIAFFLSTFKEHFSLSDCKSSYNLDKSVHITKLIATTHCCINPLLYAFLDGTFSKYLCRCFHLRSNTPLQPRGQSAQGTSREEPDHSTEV
Protocol: as §2

[4] = biological target: T1, mCCRL2; assay: intracellular calcium mobilization, mCCRL2/L1.2 transfectants; type: cell-based; details: Fluo-4; CXCL12 acts via endogenous CXCR4
Protocol: as §1

[5] = tested on: peritoneal macrophages; assay: mCCRL2 expression on peritoneal macrophages cultured 24 h with stimuli; details: 24 h culture with stimulus
[6] = tested on: mouse peritoneal mast cells; assay: in vitro transwell chemotaxis, peritoneal mast cells; type: cell-based; details: SSChigh CD11b- c-kit+ cells
Protocol: as §2

[7] = tested on: bEND3 cells; assay: CCRL2 expression in TNFα-treated bEND3 endothelioma cells; type: cell-based, mouse; details: 24-hour treatment, 20 ng/ml
Text: FIG. 22. […] Panel A. Robust upregulation of CCRL2 RNA by microarray analysis (Affymetrix®). Panel B. TNFα-treated bEND3 cells acquire CCRL2 surface protein (but not CMKLR1 expression) as determined by mAb staining and flow cytometry. Panel C. […] CCRL2/L1.2 and empty vector pcDNA3/L1.2 transfectants are shown as controls. The mean+/−SD of triplicate wells is shown for an individual experiment. A representative data set of 2 performed with similar results is shown for parts B and C, and n=1 for part A.
2005. J Exp Med 201: 509-515). […] We observed the same TNFα-mediated induction of protein expression by mAb staining […].

[8] = biological target: T3, mouse CCRL2 (chemokine (CC motif) receptor-like 2), untagged (mouse, UniProt O35457 1-360); assay: flow cytometry on peritoneal mast cells (F4/80-, c-kit+ gate) of WT and CCRL2 KO mice, 10 nM His8-tagged isoform, anti-His6 PE [panel E]
T3 construct: whole, on cells; also called mCCRL2; mCCRL2/L1.2
T3 sequence (looked up): T1 sequence (O35457 1-360)

[9] = biological target: T4, mouse CCRL2 with an engineered N-terminal hemagglutinin (HA) tag (mouse, UniProt O35457 1-360); assay: flow cytometry; untagged chemerin competes with 10 nM His8-tagged serum form human chemerin, detected with anti-His6 PE
T4 construct: whole, on cells; also called mCCRL2-HA; mCCRL2-HA/L1.2; not shown: engineered N-terminal HA tag
T4 sequence (looked up): T1 sequence (O35457 1-360)

[10] = biological target: T5, human CCRL2 with an engineered N-terminal hemagglutinin (HA) tag (human, UniProt O00421 1-344); assay: as above
T5 construct: whole, on cells; also called huCCRL2-HA; not shown: engineered N-terminal HA tag
T5 sequence (looked up): T2 sequence (O00421 1-344)

[11] = biological target: mouse CCRL2 (chemokine (CC motif) receptor-like 2), untagged (mouse) (UniProt O35457); assay: saturation binding of 125I-chemerin 21-148 to mCCRL2/L1.2 cells, one-site fit; saturation binding, single site
[12] = biological target: T3, mouse CCRL2 (chemokine (CC motif) …); assay: flow cytometry on WT peritoneal mast cells; competitor displaced: 10 nM His8-tagged serum form chemerin, anti-His6 PE [panel E]

**Q.** `Nc1ncnc2c1ncn2[C@@H]1O[C@H](COP(=O)(O)OP(=O)(O)OP(=O)(O)O)[C@@H](O)[C@H]1O` [ATP, reference compound] was tested. Which intracellular calcium mobilization [1] did it give?
**A.** responded

**Q.** Which transwell migration [2] does the source give for “CCL5: chemokine purchased from R&D Systems” here?
**A.** did not induce migration

**Q.** Which transwell migration [2] does the source give for “CCL7: chemokine purchased from R&D Systems” here?
**A.** did not induce migration

**Q.** For CCL11: known chemoattractant, which transwell migration [2] is on record?
**A.** none stimulated

**Q.** With “CCL19: chemokine, positive control via CCR7” as the molecule, how does the transwell migration [2] read?
**A.** migrated

**Q.** And the transwell migration [3]?
**A.** migrated

**Q.** For CCL28: known chemoattractant, which transwell migration [2] is on record?
**A.** none stimulated

**Q.** CXCL9: known chemoattractant was tested. Which transwell migration [2] did it give?
**A.** none stimulated

**Q.** For “CXCL12: chemokine, positive control via CXCR4”, which intracellular calcium mobilization [4] is on record?
**A.** responded

**Q.** And the transwell migration [2]?
**A.** migrated

**Q.** And the transwell migration [3]?
**A.** migrated

**Q.** CXCL13: known chemoattractant was tested. Which transwell migration [2] did it give?
**A.** none stimulated

**Q.** IFNγ: cytokine purchased from Roche was tested. Which “mCCRL2 protein expression on peritoneal macrophages” value (“mCCRL2 protein expression” for short) [5] did it give?
**A.** upregulated

**Q.** Which transwell migration [6] does the source give for “SCF: stem cell factor, positive control for mast cell chemotaxis [reference compound]” here?
**A.** migrated

**Q.** Which “CCRL2 mRNA” value [7] does the source give for TNFα here?
**A.** highly upregulated

**Q.** What about the “CCRL2 protein expression by mAb staining” value [7] of the same molecule?
**A.** induction

**Q.** And the “mCCRL2 protein expression” value [5]?
**A.** upregulated

**Q.** Which “mCCRL2 protein expression” value [5] does the source give for poly:IC here?
**A.** upregulated

B1: carboxyl-terminal His8-tagged "pro-form" human chemerin (ligand)
chain: ADPELTEAQRRGLQVALEEFHKHPPVQWAFQETSVESAVDTPFPAGIFVRLEFKLQQTSCRKRDWKKPECKVRPNGRKRKCLACIKLGSEDKVLGRLVHCPIETQVLREAEEHQETQCLRVQRAGEDPHSFYFPGQFAFSKALPRSPHHHHHHHH
notes: Printed with an ellipsis, and with six H although called His8-tagged; also called His8-tagged chemerin isoform
**Q.** Does B1 bind [8]?
**A.** binds

B2: CCL22: known chemoattractant (protein, UniProt O00626 25-93, looked up)
C-C motif chemokine 22: GPYGANMEDSVCCRDYVRYRLPLRVVKHFYWTSDSCPRPGVVLLTFRDKEICADPRVPWVKMILNKLSQ
**Q.** How did the transwell migration [2] turn out when B2 was run?
**A.** none stimulated

B3: CCL17: known chemoattractant (protein, UniProt Q92583 24-94, looked up)
C-C motif chemokine 17: ARGTNVGRECCLEYFKGAIPLRKLKTWYQTSEDCSRDAIVFVTVQGRAICSDPNNKRVKNAVKYLQSLERS
**Q.** How did the transwell migration [2] turn out when B3 was run?
**A.** none stimulated

B4: untagged "serum form" human chemerin (His8 tag removed by carboxypeptidase A) (ligand)
chain: ADPELTEAQRRGLQVALEEFHKHPPVQWAFQETSVESAVDTPFPAGIFVRLEFKLQQTSCRKRDWKKPECKVRPNGRKRKCLACIKLGSEDKVLGRLVHCPIETQVLREAEEHQETQCLRVQRAGEDPHSFYFPGQFAPH
notes: The assays print 'untagged serum form chemerin' or 'serum form chemerin' without the species; Printed with an ellipsis; also called untagged serum form chemerin; untagged chemerin
**Q.** Which results are given for B4?
**A.** EC50 [9]: 45 nM; EC50 [10]: 7 nM

B5: CCL8: chemokine purchased from R&D Systems (protein, UniProt P80075 24-99, looked up)
C-C motif chemokine 8: QPDSVSIPITCCFNVINRKIPIQRLESYTRITNIQCPKEAVIFKTKRGKEVCADPKERWVRDSMKHLDQIFQNLKP
**Q.** B5 was tested. Which transwell migration [2] did it give?
**A.** did not induce migration

B6: CCL27: known chemoattractant (protein, UniProt Q9Y4X3 25-112, looked up)
C-C motif chemokine 27: FLLPPSTACCTQLYRKPLSDKLLRKVIQVELQEADGDCHLQAFVLHLAQRSICIHPQNPSLSQWFEHQERKLHGTLPKLNFGMLRKMG
**Q.** With B6 as the molecule, how does the transwell migration [2] read?
**A.** none stimulated

B7: radioiodinated human chemerin (residues 21-148) (ligand, UniProt Q99969 21-148, looked up)
chain: ELTEAQRRGLQVALEEFHKHPPVQWAFQETSVESAVDTPFPAGIFVRLEFKLQQTSCRKRDWKKPECKVRPNGRKRKCLACIKLGSEDKVLGRLVHCPIETQVLREAEEHQETQCLRVQRAGEDPHSF
modifications: 125I-labelled (radioiodinated), specific activity 97 Ci/g
**Q.** Which Kd [11] does the source give for B7 here?
**A.** 1.6 nM

B8: CCL25: known chemoattractant (protein, UniProt O15444 24-150, looked up)
C-C motif chemokine 25: QGVFEDCCLAYHYPIGWAVLRRAWTYRIQEVSGSCNLPAAIFYLPKRHRKVCGNPKSREVQRAMKLLDARNKVFAKLHHNTQTFQAGPHAVKKLSSGNSKLSSSKFSNPISSSKRNVSLLISANSGL
**Q.** Which transwell migration [2] does the source give for B8 here?
**A.** none stimulated

B9: pro-form (1000 nM untagged chemerin isoform) (ligand)
chain: ADPELTEAQRRGLQVALEEFHKHPPVQWAFQETSVESAVDTPFPAGIFVRLEFKLQQTSCRKRDWKKPECKVRPNGRKRKCLACIKLGSEDKVLGRLVHCPIETQVLREAEEHQETQCLRVQRAGEDPHSFYFPGQFAFSKALPRSPH
notes: also called untagged pro-form human chemerin, His8 tag removed by carboxypeptidase A
**Q.** Does B9 bind [12]?
**A.** binds
